This note sets out measurements from patent publication US20050003420, “Recycled mutagenesis of restriction endonuclease toward enhanced catalytic activity” (published 2005).

Bounds are passed on as bounds.

The target in data set [1] is T1, BsoBI D246Q D246Q (UniProt P70985).
T1 sequence: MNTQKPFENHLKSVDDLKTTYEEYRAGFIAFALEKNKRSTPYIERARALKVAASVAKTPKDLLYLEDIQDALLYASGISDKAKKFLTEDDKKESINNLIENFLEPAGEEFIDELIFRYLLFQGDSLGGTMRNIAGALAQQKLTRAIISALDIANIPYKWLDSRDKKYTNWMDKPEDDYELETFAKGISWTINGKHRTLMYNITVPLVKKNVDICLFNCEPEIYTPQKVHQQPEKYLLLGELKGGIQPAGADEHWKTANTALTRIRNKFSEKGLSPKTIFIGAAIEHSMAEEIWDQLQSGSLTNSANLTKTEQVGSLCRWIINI
Put plainly: cleavage_in_vitro. The note with it: cell extract.

The target of data set [2] is T2, BsoBI D246N D246N (UniProt P70985).
T2 sequence: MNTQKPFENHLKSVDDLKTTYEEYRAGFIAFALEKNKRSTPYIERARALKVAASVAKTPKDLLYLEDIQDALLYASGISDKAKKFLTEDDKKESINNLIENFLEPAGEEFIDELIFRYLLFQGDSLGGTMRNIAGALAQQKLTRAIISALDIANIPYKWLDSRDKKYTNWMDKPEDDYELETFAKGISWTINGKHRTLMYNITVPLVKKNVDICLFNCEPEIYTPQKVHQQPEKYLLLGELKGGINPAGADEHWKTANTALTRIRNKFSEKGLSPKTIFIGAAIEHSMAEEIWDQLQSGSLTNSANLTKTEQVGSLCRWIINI
The experiment in a line: cleavage_in_vitro. Conditions: cell extract.

Data set [3] has as its target T3, BsoBI D246E D246E (UniProt P70985).
T3 sequence: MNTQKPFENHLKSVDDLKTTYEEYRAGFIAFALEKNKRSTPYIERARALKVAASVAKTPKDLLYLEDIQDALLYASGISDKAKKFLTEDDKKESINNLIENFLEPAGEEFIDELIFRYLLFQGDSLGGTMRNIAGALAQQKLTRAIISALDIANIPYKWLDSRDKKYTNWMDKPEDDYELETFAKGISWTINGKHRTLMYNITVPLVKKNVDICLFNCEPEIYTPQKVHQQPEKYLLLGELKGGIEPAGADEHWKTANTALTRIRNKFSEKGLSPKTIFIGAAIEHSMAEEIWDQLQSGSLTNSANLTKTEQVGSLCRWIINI
The experiment in a line: cleavage_in_vitro. The note with it: lambda or pUC19; purified D246E also lacked measurable cleavage.

The target in data set [4] is BsoBI pseudorevertant 6c E46V/D61E/S94T/D246A (UniProt P70985). The experiment in a line: cleavage_in_vitro. The note with it: pUC19, 65 C.
Data set [5] addresses T4, BsoBI restriction endonuclease (UniProt P70985 P70985:1-323).
T4 sequence: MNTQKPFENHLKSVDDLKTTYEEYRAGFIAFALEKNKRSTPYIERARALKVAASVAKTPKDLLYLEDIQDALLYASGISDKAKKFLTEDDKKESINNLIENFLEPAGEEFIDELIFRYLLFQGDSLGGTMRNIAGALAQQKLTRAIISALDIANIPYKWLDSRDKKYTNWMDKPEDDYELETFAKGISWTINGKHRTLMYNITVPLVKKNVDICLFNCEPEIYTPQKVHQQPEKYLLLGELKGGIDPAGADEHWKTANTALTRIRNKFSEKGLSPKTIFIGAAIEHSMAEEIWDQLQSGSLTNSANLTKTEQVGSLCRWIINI
Put plainly: cleavage_in_vitro; pUC19, NEB buffer 2, 65 C. Conditions: tags: untagged, expressed from pRRS-bsoBIR in E. coli ER2683; chain copies: 2 inferred.

Data set [6] addresses T5, BsoBI pseudorevertant 8d (UniProt P70985 P70985:1-323, N36K/D246A).
T5 sequence: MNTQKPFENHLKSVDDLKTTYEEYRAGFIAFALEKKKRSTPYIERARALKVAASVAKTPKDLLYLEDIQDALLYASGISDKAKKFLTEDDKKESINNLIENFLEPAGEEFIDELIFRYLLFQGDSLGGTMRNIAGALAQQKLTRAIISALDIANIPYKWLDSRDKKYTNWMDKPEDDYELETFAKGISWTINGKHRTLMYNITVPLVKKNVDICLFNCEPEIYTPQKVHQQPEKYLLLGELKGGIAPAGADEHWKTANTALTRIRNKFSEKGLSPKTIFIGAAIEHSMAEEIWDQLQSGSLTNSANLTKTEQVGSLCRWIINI
Put plainly: cleavage_in_vitro; pUC19, 65 C. Conditions: tags: partially purified; chain copies: 2 inferred.

The target of data set [7] is T6, BsoBI pseudorevertant 29e (UniProt P70985 P70985:1-323, D246A/C317W).
T6 sequence: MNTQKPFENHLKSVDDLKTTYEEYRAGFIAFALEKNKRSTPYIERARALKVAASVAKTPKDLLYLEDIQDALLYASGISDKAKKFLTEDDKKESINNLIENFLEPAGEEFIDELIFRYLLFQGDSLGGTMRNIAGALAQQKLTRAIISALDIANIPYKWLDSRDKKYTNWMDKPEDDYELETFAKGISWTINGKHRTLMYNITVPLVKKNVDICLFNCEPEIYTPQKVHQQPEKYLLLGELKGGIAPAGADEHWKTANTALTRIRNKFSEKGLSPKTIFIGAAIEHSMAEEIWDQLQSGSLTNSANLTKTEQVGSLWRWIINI
The experiment in a line: cleavage_in_vitro; pUC19, 65 C. Conditions: chain copies: 2 inferred.

Data set [8] has as its target T7, BsoBI pseudorevertant 9c (same as 11c) (UniProt P70985 P70985:1-323, R38S/L62I/D112Y/N169T/L238F/D246A/A248S).
T7 sequence: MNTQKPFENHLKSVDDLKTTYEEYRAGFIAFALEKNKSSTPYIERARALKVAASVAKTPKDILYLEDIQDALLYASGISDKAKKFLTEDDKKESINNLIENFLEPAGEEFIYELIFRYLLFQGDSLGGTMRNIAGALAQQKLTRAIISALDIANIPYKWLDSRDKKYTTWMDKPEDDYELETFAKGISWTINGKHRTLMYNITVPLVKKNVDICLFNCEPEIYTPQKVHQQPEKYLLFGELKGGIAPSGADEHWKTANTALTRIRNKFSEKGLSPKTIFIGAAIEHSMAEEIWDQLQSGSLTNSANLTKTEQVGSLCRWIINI
The experiment in a line: cleavage_in_vitro; pUC19, 65 C; protein temperature sensitive. Conditions: chain copies: 2 inferred.

The target in data set [9] is T8, PvuII E18K/K93R/R105H (UniProt P23657 P23657:1-157, E18K/K93R/R105H).
T8 sequence: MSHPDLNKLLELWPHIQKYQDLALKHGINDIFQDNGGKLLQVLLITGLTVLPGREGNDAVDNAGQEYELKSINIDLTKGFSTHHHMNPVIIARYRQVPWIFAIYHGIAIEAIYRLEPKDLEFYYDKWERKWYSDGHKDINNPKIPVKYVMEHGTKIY
Put plainly: cleavage_in_vitro; NEB buffer 2, 37 C, 1.5 h. Conditions: tags: His-tag; chain copies: 2 inferred. An excerpt:
(§1) In order to test the cleavage specificity of the mutant endonucleases, two substrates were designed such that a limited number of sites related to the PvuII cognate sequence were present. A 1042 bp DNA substrate, corresponding to bases 317-1359 of the pUC19 sequence (GenBank #L09137), was amplified from pUC19. This substrate contains a unique PvuII site 631 bp from one end. A second, 1270 bp DNA substrate was amplified from the region corresponding to bases 6010-7280 of pTYB1 (New England Biolabs, Beverly, Mass.). This substrate contains a unique MfeI site 1022 bp from one end, and a unique PmlI site 810 bp from the same end. These substrates were used to determine the substrate specificity of PvuII (K93R) and its variants K93R/R105H, K93R/V50A and E18K/K93R/R105H. PvuII restriction digestion was assayed in NEB buffer 2 at 37° C. for 1.5 hour (New England Biolabs, Inc., Beverly, Mass.). […] The amount of protein required to cleave the MfeI/PmlI substrate at the MfeI site is >10 μg for the K93R mutant, 0.1 μg for K93R/105H, for 0.1 μg K93R/V50A, and 0.03 μg for K93R/R105H/E18K. The amount of protein required to cleave the MfeI/PmlI substrate at the PmlI site is >10 μg for the K93R mutant, 3 μg for K93R/105H, 3 μg for K93R/V50A, and 3 μg for K93R/R105H/E18K. Cleavage of the MfeI or PmlI sites by the wild-type PvuII endonuclease was not detectible (data not shown). It is clear that, compared to K93R, these K93R variants show an increase in specific cleavage activity at CAATTG and […], while maintaining similar levels of cleavage activity at CAGCTG.

In data set [10] the target is T9, PvuII K93R/V50A (UniProt P23657 P23657:1-157, K93R/V50A).
T9 sequence: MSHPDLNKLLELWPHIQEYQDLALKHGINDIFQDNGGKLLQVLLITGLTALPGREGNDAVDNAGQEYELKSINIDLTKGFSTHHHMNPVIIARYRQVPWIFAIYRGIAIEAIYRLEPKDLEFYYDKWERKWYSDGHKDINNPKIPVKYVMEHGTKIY
Put plainly: cleavage_in_vitro; NEB buffer 2, 37 C, 1.5 h. Conditions: tags: His-tag; chain copies: 2 inferred.
Description: as §1

Data set [11] has as its target T10, PvuII K93R/R105H (UniProt P23657 P23657:1-157, K93R/R105H).
T10 sequence: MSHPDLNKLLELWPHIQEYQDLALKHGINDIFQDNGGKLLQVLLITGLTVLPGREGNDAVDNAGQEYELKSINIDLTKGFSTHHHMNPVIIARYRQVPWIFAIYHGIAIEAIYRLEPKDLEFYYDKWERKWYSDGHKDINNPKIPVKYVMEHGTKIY
Put plainly: cleavage_in_vitro; NEB buffer 2, 37 C, 1.5 h. Conditions: tags: His-tag; chain copies: 2 inferred.
Description: as §1

The target in data set [12] is T11, PvuII K93R (UniProt P23657 P23657:1-157, K93R).
T11 sequence: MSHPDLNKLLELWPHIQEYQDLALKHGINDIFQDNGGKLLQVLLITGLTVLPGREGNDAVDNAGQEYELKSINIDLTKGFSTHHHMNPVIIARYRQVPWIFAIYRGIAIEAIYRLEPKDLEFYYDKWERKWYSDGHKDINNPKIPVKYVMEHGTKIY
The experiment in a line: cleavage_in_vitro; NEB buffer 2, 37 C, 1.5 h. The note with it: tags: His-tag; chain copies: 2 inferred.
Description: as §1

In the case of lambda DNA (8 BsoBI sites), the activity in [1], in [2] and in [3] was < 0.001 % of wt in each case.
For “GTACCCGGGGAT (double strand) [pUC19/pZZ1 CCCGGG site]”, the activity in [4] was 4 % of wt.

B1: pUC19/pZZ1 CCCGGG site (dsDNA)
DNA 1: GTACCCGGGGAT
DNA 2: ATCCCCGGGTAC
Take B1: the activity in data set [5] was 100 % of wt; in data set [6], 5 % of wt; in data set [7] it was 4 % of wt; in [8] it was 10 % of wt.

B2: pTYB1 1270 bp PCR fragment, MfeI site (dsDNA)
DNA 1: CAATTG
DNA 2: CAATTG
Turning to B2, the activity in [9] was 0.03 ug protein required to cleave; in data set [10] it was 0.1 ug protein required to cleave; in data set [11], 0.1 ug protein required to cleave.

B3: pUC19 1042 bp PCR fragment, unique PvuII site (dsDNA)
DNA 1: CAGCTG
DNA 2: CAGCTG
For B3, the activity in [9] was 0.03 ug protein required to cleave; in data set [12], 0.03 ug protein required to cleave; in data set [10], 0.01 ug protein required to cleave; in [11], 0.01 ug protein required to cleave.
